Test results: paper PMC9482650, “Quantitative fragmentomics allow affinity mapping of interactomes” (Nature Communications, 2022)

T1: RAPGEF6, Q8TEU7
T1 sequence (Q8TEU7 525-625, limits assumed, looked up): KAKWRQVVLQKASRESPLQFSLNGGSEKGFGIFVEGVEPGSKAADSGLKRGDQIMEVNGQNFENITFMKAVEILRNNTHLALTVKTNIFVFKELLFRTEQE

T2: CARD11, Q9BXL7
T2 sequence (Q9BXL7 662-765, limits assumed, looked up): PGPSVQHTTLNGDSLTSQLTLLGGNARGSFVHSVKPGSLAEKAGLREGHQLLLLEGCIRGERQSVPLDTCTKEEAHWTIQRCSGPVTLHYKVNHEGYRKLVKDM

T3: APBA2_2, Q99767
T3 sequence (Q99767 654-744, limits assumed, looked up): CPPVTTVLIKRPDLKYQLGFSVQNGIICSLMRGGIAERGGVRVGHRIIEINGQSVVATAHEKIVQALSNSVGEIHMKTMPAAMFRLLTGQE

T4: SNTG1, Q9NSN8
T4 sequence (Q9NSN8 52-150, limits assumed, looked up): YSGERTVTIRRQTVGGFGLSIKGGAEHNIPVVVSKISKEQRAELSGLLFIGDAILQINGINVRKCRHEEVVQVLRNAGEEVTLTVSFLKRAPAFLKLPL

T5: SNTB1, Q13884
T5 sequence (Q13884 107-205, limits assumed, looked up): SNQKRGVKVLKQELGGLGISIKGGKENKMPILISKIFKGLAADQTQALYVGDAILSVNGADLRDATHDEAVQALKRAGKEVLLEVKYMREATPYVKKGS

T6: DFNB31_3, Q9P202
T6 sequence (Q9P202 811-907, limits assumed, looked up): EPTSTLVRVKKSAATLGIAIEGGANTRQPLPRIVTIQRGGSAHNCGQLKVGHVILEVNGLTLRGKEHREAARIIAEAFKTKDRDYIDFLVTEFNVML

T7: TJP3_3, O95049
T7 sequence (O95049 375-456, limits assumed, looked up): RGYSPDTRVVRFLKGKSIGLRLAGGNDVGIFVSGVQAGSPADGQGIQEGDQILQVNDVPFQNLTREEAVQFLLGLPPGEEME

T8: DFNB31_1, Q9P202
T8 sequence (Q9P202 135-233, limits assumed, looked up): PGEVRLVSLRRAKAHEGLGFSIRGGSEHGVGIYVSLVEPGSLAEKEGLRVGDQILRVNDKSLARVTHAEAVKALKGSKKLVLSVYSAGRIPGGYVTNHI

T9: HTRA3, P83110
T9 sequence (P83110 354-453, limits assumed, looked up): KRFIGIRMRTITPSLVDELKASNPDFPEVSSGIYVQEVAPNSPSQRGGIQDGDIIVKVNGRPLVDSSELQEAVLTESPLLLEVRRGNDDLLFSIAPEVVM

T10: LNX2_2, Q8N448
T10 sequence (Q8N448 334-432, limits assumed, looked up): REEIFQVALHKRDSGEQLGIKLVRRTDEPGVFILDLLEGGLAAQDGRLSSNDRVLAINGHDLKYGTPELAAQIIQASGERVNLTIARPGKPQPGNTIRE

T11: DFNB31_2, Q9P202
T11 sequence (Q9P202 274-371, limits assumed, looked up): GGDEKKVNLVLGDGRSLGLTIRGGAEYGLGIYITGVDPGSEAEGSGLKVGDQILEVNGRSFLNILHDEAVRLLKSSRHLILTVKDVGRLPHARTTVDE

T12: MPDZ_12, O75970
T12 sequence (O75970 1857-1958, limits assumed, looked up): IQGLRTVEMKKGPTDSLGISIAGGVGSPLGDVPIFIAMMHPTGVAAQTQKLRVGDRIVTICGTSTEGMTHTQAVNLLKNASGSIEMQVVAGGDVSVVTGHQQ

T13: ARHGAP21, Q5T5U3
T13 sequence (Q5T5U3 45-169, limits assumed, looked up): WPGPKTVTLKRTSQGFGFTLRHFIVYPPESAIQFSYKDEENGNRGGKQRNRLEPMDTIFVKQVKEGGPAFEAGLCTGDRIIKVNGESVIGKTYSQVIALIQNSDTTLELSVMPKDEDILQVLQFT

B1: ADAM22, Q9P0K1 (peptide)
chain: QSARLWETSI
B2: FLVCR1, Q9Y5Y0 (peptide)
chain: MLSKQSESAI
B3: SLC2A7, Q6PXP3 (peptide)
chain: TASPAKETSF

What follows are binders tested against MAGI2_6, Q86UL8 (assay: holdup assay). Details: plain residues with an end cap or a label only (N-terminal biotin on a linker: ado-ado).
MAGI2_6, Q86UL8, sequence (Q86UL8 1141-1229): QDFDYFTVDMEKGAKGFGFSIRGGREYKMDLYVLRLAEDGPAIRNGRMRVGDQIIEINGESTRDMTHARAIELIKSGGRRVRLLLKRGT
Set-up: key: below the threshold = too weak to quantify, mostly under pKd 3.1 to 4

Row | Binder | pKd
1 | B1 | 4.22
2 | B2 | below the threshold
3 | B3 | 4.1

These binders were tested against NHERF4_2, Q86UT5 (assay: holdup assay). Details: plain residues with an end cap or a label only (N-terminal biotin on a linker: ado-ado).
NHERF4_2, Q86UT5, sequence (Q86UT5 220-308): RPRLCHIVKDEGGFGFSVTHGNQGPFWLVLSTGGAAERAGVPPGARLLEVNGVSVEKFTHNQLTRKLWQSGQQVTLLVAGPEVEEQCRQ
Set-up: key: below the threshold = too weak to quantify, mostly under pKd 3.1 to 4

Row | Binder | pKd
4 | B1 | below the threshold
5 | B2 | below the threshold
6 | B3 | below the threshold

Each binder was assayed against Inadl_10, Q8NI35 (assay: holdup assay). Details: plain residues with an end cap or a label only (N-terminal biotin on a linker: ado-ado).
Inadl_10, Q8NI35, sequence (Q8NI35 1673-1763): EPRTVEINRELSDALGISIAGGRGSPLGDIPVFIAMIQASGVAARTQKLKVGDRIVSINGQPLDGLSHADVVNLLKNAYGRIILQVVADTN
Set-up: key: below the threshold = too weak to quantify, mostly under pKd 3.1 to 4

Row | Binder | pKd
7 | B1 | 3.8
8 | B2 | below the threshold
9 | B3 | below the threshold

What follows are binders tested against SNX27, Q96L92 (assay: holdup assay). Details: plain residues with an end cap or a label only (N-terminal biotin on a linker: ado-ado).
Set-up: key: below the threshold = too weak to quantify, mostly under pKd 3.1 to 4

Row | Binder | pKd
10 | B1 | 5.41
11 | B2 | 4.4
12 | B3 | 5.48

These binders were tested against T1, RAPGEF6, Q8TEU7 (assay: holdup assay). Details: plain residues with an end cap or a label only (N-terminal biotin on a linker: ado-ado).
Set-up: key: below the threshold = too weak to quantify, mostly under pKd 3.1 to 4

Row | Binder | pKd
13 | B1 | below the threshold
14 | B2 | below the threshold
15 | B3 | below the threshold

Each binder was assayed against SCRIB_1, Q14160 (assay: holdup assay). Details: plain residues with an end cap or a label only (N-terminal biotin on a linker: ado-ado).
SCRIB_1, Q14160, sequence (Q14160 718-814): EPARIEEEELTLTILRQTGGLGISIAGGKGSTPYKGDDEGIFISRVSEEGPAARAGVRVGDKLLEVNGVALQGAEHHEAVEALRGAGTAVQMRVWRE
Set-up: key: below the threshold = too weak to quantify, mostly under pKd 3.1 to 4

Row | Binder | pKd
16 | B1 | 5.23
17 | B2 | 3.91
18 | B3 | 4.56

Each binder was assayed against T2, CARD11, Q9BXL7 (assay: holdup assay). Details: plain residues with an end cap or a label only (N-terminal biotin on a linker: ado-ado).
Set-up: key: below the threshold = too weak to quantify, mostly under pKd 3.1 to 4

Row | Binder | pKd
19 | B1 | below the threshold
20 | B2 | below the threshold
21 | B3 | below the threshold

These binders were tested against T3, APBA2_2, Q99767 (assay: holdup assay). Details: plain residues with an end cap or a label only (N-terminal biotin on a linker: ado-ado).
Set-up: key: below the threshold = too weak to quantify, mostly under pKd 3.1 to 4

Row | Binder | pKd
22 | B1 | below the threshold
23 | B2 | below the threshold
24 | B3 | below the threshold

Each binder was assayed against T4, SNTG1, Q9NSN8 (assay: holdup assay). Details: plain residues with an end cap or a label only (N-terminal biotin on a linker: ado-ado).
Set-up: key: below the threshold = too weak to quantify, mostly under pKd 3.1 to 4

Row | Binder | pKd
25 | B1 | 4.82
26 | B2 | 3.93
27 | B3 | 3.56

The binders below were run against T5, SNTB1, Q13884 (assay: holdup assay). Details: plain residues with an end cap or a label only (N-terminal biotin on a linker: ado-ado).
Set-up: key: below the threshold = too weak to quantify, mostly under pKd 3.1 to 4

Row | Binder | pKd
28 | B1 | 4.69
29 | B2 | 3.68
30 | B3 | 3.53

The binders below were run against T6, DFNB31_3, Q9P202 (assay: holdup assay). Details: plain residues with an end cap or a label only (N-terminal biotin on a linker: ado-ado).
Set-up: key: below the threshold = too weak to quantify, mostly under pKd 3.1 to 4

Row | Binder | pKd
31 | B1 | 4.2
32 | B2 | below the threshold
33 | B3 | 3.88

Each binder was assayed against T7, TJP3_3, O95049 (assay: holdup assay). Details: plain residues with an end cap or a label only (N-terminal biotin on a linker: ado-ado).
Set-up: key: below the threshold = too weak to quantify, mostly under pKd 3.1 to 4

Row | Binder | pKd
34 | B1 | below the threshold
35 | B2 | below the threshold
36 | B3 | below the threshold

The binders below were run against T8, DFNB31_1, Q9P202 (assay: holdup assay). Details: plain residues with an end cap or a label only (N-terminal biotin on a linker: ado-ado).
Set-up: key: below the threshold = too weak to quantify, mostly under pKd 3.1 to 4

Row | Binder | pKd
37 | B1 | 5.41
38 | B2 | 4.86
39 | B3 | 3.94

The binders below were run against PICK1, Q9NRD5 (assay: holdup assay). Details: plain residues with an end cap or a label only (N-terminal biotin on a linker: ado-ado).
PICK1, Q9NRD5, sequence (Q9NRD5 17-115): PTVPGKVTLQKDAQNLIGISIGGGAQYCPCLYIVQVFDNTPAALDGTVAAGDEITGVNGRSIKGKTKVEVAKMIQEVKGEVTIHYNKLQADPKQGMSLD
Set-up: key: below the threshold = too weak to quantify, mostly under pKd 3.1 to 4

Row | Binder | pKd
40 | B1 | 3.91
41 | B2 | below the threshold
42 | B3 | below the threshold

What follows are binders tested against NOS1, P29475 (assay: holdup assay). Details: plain residues with an end cap or a label only (N-terminal biotin on a linker: ado-ado).
NOS1, P29475, sequence (P29475 9-101): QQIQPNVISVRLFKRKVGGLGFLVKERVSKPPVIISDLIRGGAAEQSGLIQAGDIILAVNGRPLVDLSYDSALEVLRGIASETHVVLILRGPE
Set-up: key: below the threshold = too weak to quantify, mostly under pKd 3.1 to 4

Row | Binder | pKd
43 | B1 | below the threshold
44 | B2 | 3.79
45 | B3 | below the threshold

The binders below were run against T9, HTRA3, P83110 (assay: holdup assay). Details: plain residues with an end cap or a label only (N-terminal biotin on a linker: ado-ado).
Set-up: key: below the threshold = too weak to quantify, mostly under pKd 3.1 to 4

Row | Binder | pKd
46 | B1 | below the threshold
47 | B2 | below the threshold
48 | B3 | below the threshold

The binders below were run against GIPC2, Q8TF65 (assay: holdup assay). Details: plain residues with an end cap or a label only (N-terminal biotin on a linker: ado-ado).
GIPC2, Q8TF65, sequence (Q8TF65 112-203): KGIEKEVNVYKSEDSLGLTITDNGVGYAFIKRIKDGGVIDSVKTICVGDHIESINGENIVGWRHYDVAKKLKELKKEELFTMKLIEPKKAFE
Set-up: key: below the threshold = too weak to quantify, mostly under pKd 3.1 to 4

Row | Binder | pKd
49 | B1 | 4.11
50 | B2 | 3.74
51 | B3 | below the threshold

The binders below were run against T10, LNX2_2, Q8N448 (assay: holdup assay). Details: plain residues with an end cap or a label only (N-terminal biotin on a linker: ado-ado).
Set-up: key: below the threshold = too weak to quantify, mostly under pKd 3.1 to 4

Row | Binder | pKd
52 | B1 | below the threshold
53 | B2 | below the threshold
54 | B3 | below the threshold

These binders were tested against T11, DFNB31_2, Q9P202 (assay: holdup assay). Details: plain residues with an end cap or a label only (N-terminal biotin on a linker: ado-ado).
Set-up: key: below the threshold = too weak to quantify, mostly under pKd 3.1 to 4

Row | Binder | pKd
55 | B1 | 3.57
56 | B2 | below the threshold
57 | B3 | below the threshold

Each binder was assayed against FRMPD4, Q14CM0 (assay: holdup assay). Details: plain residues with an end cap or a label only (N-terminal biotin on a linker: ado-ado).
FRMPD4, Q14CM0, sequence (Q14CM0 67-160): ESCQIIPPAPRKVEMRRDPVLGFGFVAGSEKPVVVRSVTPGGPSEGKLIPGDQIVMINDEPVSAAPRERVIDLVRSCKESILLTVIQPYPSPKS
Set-up: key: below the threshold = too weak to quantify, mostly under pKd 3.1 to 4

Row | Binder | pKd
58 | B1 | below the threshold
59 | B2 | below the threshold
60 | B3 | below the threshold

The binders below were run against T12, MPDZ_12, O75970 (assay: holdup assay). Details: plain residues with an end cap or a label only (N-terminal biotin on a linker: ado-ado).
Set-up: key: below the threshold = too weak to quantify, mostly under pKd 3.1 to 4

Row | Binder | pKd
61 | B1 | below the threshold
62 | B2 | below the threshold
63 | B3 | below the threshold

What follows are binders tested against T13, ARHGAP21, Q5T5U3 (assay: holdup assay). Details: plain residues with an end cap or a label only (N-terminal biotin on a linker: ado-ado).
Set-up: key: below the threshold = too weak to quantify, mostly under pKd 3.1 to 4

Row | Binder | pKd
64 | B1 | below the threshold
65 | B2 | 4.1
66 | B3 | below the threshold

These binders were tested against IL16_3, Q14005 (assay: holdup assay). Details: plain residues with an end cap or a label only (N-terminal biotin on a linker: ado-ado).
IL16_3, Q14005, sequence (Q14005 1107-1207): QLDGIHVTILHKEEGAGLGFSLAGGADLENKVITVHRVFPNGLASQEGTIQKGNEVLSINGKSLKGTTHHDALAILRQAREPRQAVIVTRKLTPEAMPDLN
Set-up: key: below the threshold = too weak to quantify, mostly under pKd 3.1 to 4

Row | Binder | pKd
67 | B1 | below the threshold
68 | B2 | below the threshold
69 | B3 | below the threshold

The binders below were run against Inadl_4, Q8NI35 (assay: holdup assay). Details: plain residues with an end cap or a label only (N-terminal biotin on a linker: ado-ado).
Inadl_4, Q8NI35, sequence (Q8NI35 547-651): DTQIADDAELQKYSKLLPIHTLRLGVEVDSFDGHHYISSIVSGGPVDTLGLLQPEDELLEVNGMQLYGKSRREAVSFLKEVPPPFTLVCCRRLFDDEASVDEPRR
Set-up: key: below the threshold = too weak to quantify, mostly under pKd 3.1 to 4

Row | Binder | pKd
70 | B1 | below the threshold
71 | B2 | below the threshold
72 | B3 | below the threshold

The binders below were run against PTPN3, P26045 (assay: holdup assay). Details: plain residues with an end cap or a label only (N-terminal biotin on a linker: ado-ado).
PTPN3, P26045, sequence (P26045 505-587): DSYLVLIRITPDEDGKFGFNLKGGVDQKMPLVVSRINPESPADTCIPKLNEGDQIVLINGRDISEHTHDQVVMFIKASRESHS
Set-up: key: below the threshold = too weak to quantify, mostly under pKd 3.1 to 4

Row | Binder | pKd
73 | B1 | 4.83
74 | B2 | 4.55
75 | B3 | 5.22
